Experimental data: US20190248902A1 (published 2019)
Substitutions are numbered along the chain they refer to.

T1: human ASGR-1 (wild type) (human, UniProt P07306 1-291)
T1 construct: also called wt ASGR1; huASGR-1
T1 sequence: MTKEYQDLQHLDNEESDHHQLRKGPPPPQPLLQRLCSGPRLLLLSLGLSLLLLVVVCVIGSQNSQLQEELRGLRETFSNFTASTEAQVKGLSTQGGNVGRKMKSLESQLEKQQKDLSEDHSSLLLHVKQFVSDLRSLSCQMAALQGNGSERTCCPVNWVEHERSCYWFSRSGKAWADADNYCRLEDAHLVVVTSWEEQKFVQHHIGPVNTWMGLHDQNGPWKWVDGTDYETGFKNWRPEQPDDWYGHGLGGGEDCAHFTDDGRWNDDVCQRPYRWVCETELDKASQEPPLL

T2: human ASGR-1 mutant construct H203 (human, UniProt P07306 1-291)
T2 construct: Arg/Glu scanning: non-arginine residues were changed to arginine; Transiently expressed on CHO-S cells
T2 sequence: T1 sequence with H203R

B1: 32D6 (antibody, V domains shown)
VH: QVQLVESGGGVVQPGRSLRLSCAASGFTFSSYGMHWVRQAPGKGLEWVTVIWHDGSNAYYADSVKGRFTISRDNSKNTLYLQMNSLRAEDTAVYYCARENSSSYYFDYWGQGTLVTVSS
VL: DIQMTQSPSSLSTSVGDRVTITCRASQNIISYLNWYQQKPGKAPKLLMYVASRLQSGVPSRFSGSGSGTDFTLTISSLQAEDFATYYCQQSYSTPYTFGGGTKVAIK
notes: mAb
B2: 60E8 (antibody, V domains shown)
VH: QVQLQESGPGLVRPSATLSLTCTVSGGSISRSSYYWGWIRQPPGKGLEWIGSIYYSGSASYNPSLKSRVTISVDTSENQFSLRLSSVTAADTAVYYCARLDSGWSFDYWGQGTLVTVSS
VL: DIQMTQSPSSLSASVGDRVTFTCRASQGIRNDLGWFQQKPGKAPKRLIYAASSLQSGVPSRFSGSGSGTEFTLTISSLQPEDFATYYCLQHSSYPLTFGGGTKVEIK
notes: mAb
B3: 10G6 (antibody, V domains shown)
VH: QVQLVQSGAEVKKPGASVKVSCKASGYTFTAYHMHWVRQAPGQGLEWMGWINPNNNGTNYAQKFQGRVTMTRDTSISTAYMELSRLRSDDTAVYYCGRDVTSSFDYWGQGTLVTVSS
VL: DIQMTQSPSSVSASVGDRVTITCRASQGISKWLAWYQQKPGKAPKILIYAAYSLQSGVPARFSGSGSGTDFTLTIRSLQPEDFATYYCQQANSFPFTFGPGTKVDIK
notes: mAb
B4: 53F7 (antibody, V domains shown)
VH: B3 VH with A31G, S84N, R87T, G97A, V100G
VL: B3 VL with T5S, K31R, K45N, I46L, Y52S, A60S, R76S, T85I
notes: mAb
B5: 6G6 (antibody, V domains shown)
VH: QVQLVQSGAEVRKPGASVKVSCKASGYTFTNYDINWVRQATGQGPEWMGWMHPNSGNTGYAKKFQGRVTMTRNTSISAAYMVLSSLRSEDTAVYYCALSSGWYYFDYWGQGTLVTVSS
VL: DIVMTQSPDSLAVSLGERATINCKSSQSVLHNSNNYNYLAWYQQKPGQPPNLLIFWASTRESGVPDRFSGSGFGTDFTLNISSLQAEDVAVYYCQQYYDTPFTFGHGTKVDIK
notes: mAb
B6: 50G9 (antibody, V domains shown)
VH: QVQLVESGGGVVQPGRSLRLSCAASGFIFSSYGMHWVRQAPGKGLEWVAVISQDGIIRYYADSVKGRFTISRDNSKNTLYLQMNSLRAEDTAVYYCARDVKQWLVRTYGMDVWGQGTTVTVSS
VL: SYELTQPPSVSVSPGQTASITCSGDKLGDKYACWYQQKPGQSPVLVIYQDSKRPSGIPERFSGSNSGNTATLTISGTQARDEAEYYCQARNSRRGVFGGGTRLTVL
notes: mAb
B7: 4B3 (antibody, V domains shown)
VH: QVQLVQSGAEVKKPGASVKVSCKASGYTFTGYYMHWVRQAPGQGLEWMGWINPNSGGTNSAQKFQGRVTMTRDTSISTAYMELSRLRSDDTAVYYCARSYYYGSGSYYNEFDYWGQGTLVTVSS
VL: SYELTQPPSVSVSPRQTVSITCSGDKLGDKYACWYQQKPGQSPVLVIYQDRKRPSGIPERFSGSNSGNTATLTISGTQAMDEADYYCQAWDNNTVIFGGGTKLTVL
notes: mAb
B8: 60D2 (antibody, V domains shown)
VH: EVQLVESGGGLVQPGGSLRLSCGASGFTFSSYSMNWVRQAPGKGLEWVSYISESSNIIYYTDSVKGRFTISRDNAMNSLYLQMNSLRDEDTAVYYCARADTPMVLYFYGMDVWGQGTTVTVSS
VL: B7 VL with R15G, V18A, D25N, C33S, K38R, R51N, A79T, I96V
notes: mAb
B9: 59F2 (antibody, V domains shown)
VH: B8 VH with E53G, M76K
VL: B7 VL with R15G, V18A, C33S, K38R, R51N, I96V
notes: mAb
B10: 65E9 (antibody, V domains shown)
VH: not shown
VL: B7 VL with R15G, V18A, D29N, A32D, C33Y, N93S, I96V
notes: mAb
B11: 29E2 (antibody, V domains shown)
VH: QVQLVESGGGVVQPGRSLRLSCAASGFTFSNCVMHWVRQAPGKGLEWVAVIWYDGSNKYYADSVKGRITISRDNSKNTLYLQMNSLRAEDTAVYYCAREEYSSGWYDYGMDVWGQGTTVTVSS
VL: DIQMTQSPSSLSASVGDRVTITCRASQAIRNDLGWYQQRPGKAPKRLIYAASSLQSGVPSRFSGSGSGTEFILTISSLQPEDFATYYCLQHYNYPRSFGQGTKLEIK
notes: mAb
B12: 45B4 (antibody, V domains shown)
VH: B11 VH with N31D, I68F, E100R, W105L
VL: B2 VL with N31D, F36Y, S92Y, L96R, G100Q
notes: mAb

Assays:
[1] = biological target: T1, human ASGR-1 (wild type); test: FACS, transfected CHO-S cells, mAb 5 ug/ml
Description: (§1) The ability of human ASGR-1-specific, ligand competing antibodies to bind to the mutant hASGR-1 proteins was assessed by FACS as described above.
(§2) Antibodies were tested for binding to the individual mutant and wild type ASGR-1 constructs using normalized antibody concentrations (5 ug/ml). CHO—S cells transiently expressing the appropriate mutated or non-mutated antigen of interest were mixed with antibody sample or controls, incubated for 1 hour at 4° C., and then washed twice. Cells with bound antibody were then incubated with Alexa Fluor® 647 IgG Fc fragment-specific detection antibody and 7-AAD viability stain for 15 minutes at 4° C., washed once and resuspended in FACS buffer. Samples were analyzed using a BD Accuri™ Flow Cytometer and an Intellicyt HyperCyt Autosampler. As a negative control, supernatants and controls were also screened against CHO—S cells transfected with empty parental vector (referred to as mock). […] Because mutant hASGR-1 expression levels varied relative to each other, sample binding data for each construct was normalized for expression by dividing the binding data from an antibody not affected by the mutations (e.g., 65C12) by the binding values of each test antibody on a given mutant construct. Also, because the antibody binding affinities varied amongst the samples, the expression corrected data (above) was further normalized by comparing test antibody binding on each mutant construct to wild type hASGR-1. Identification of specific mutations that affected test antibody binding was performed by an interquartile range (IQR) analysis to determine statistical outliers. A mutation was identified as a “hit” if the calculated values were >3× the IQR (above the 3rd quartile/upper fence) for a given mutant construct. Although IQR analysis was used here to determine signifance and identify hits, one skilled in the art will recognize that a number of methods could be employed in order to normalize the data (eg. using epitope-tagged constructs or other ASGR-1-binding antibodies directed against non-CBD epitopes).

[2] = biological target: T2, human ASGR-1 mutant construct H203; test: FACS, transfected CHO-S cells, mAb 5 ug/ml
Description: as §1, §2

[3] = biological target: T1, human ASGR-1 (wild type); test: FACS ratio: 65C12 geomean / this mAb geomean
Description: (§3) Mutant hASGR-1 variants were constructed such that non-arginine residues were changed to arginine and where wild type arginine residues were mutated to glutamic acid. Each mutant hASGR-1 sequence was then cloned into a mammalian expression vector and used to transiently transfect CHOs cells. The ability of human ASGR-1-specific, ligand competing antibodies to bind to the mutant hASGR-1 proteins was assessed by FACS as described above.
(§4) Antibodies were tested for binding to the individual mutant and wild type ASGR-1 constructs using normalized antibody concentrations (5 ug/ml). CHO—S cells transiently expressing the appropriate mutated or non-mutated antigen of interest were mixed with antibody sample or controls, incubated for 1 hour at 4° C., and then washed twice. Cells with bound antibody were then incubated with Alexa Fluor® 647 IgG Fc fragment-specific detection antibody and 7-AAD viability stain for 15 minutes at 4° C., washed once and resuspended in FACS buffer. Samples were analyzed using a BD Accuri™ Flow Cytometer and an Intellicyt HyperCyt Autosampler. As a negative control, supernatants and controls were also screened against CHO—S cells transfected with empty parental vector (referred to as mock). […] Because mutant hASGR-1 expression levels varied relative to each other, sample binding data for each construct was normalized for expression by dividing the binding data from an antibody not affected by the mutations (e.g., 65C12) by the binding values of each test antibody on a given mutant construct. Also, because the antibody binding affinities varied amongst the samples, the expression corrected data (above) was further normalized by comparing test antibody binding on each mutant construct to wild type hASGR-1. Identification of specific mutations that affected test antibody binding was performed by an interquartile range (IQR) analysis to determine statistical outliers. A mutation was identified as a “hit” if the calculated values were >3× the IQR (above the 3rd quartile/upper fence) for a given mutant construct.

[4] = biological target: T2, human ASGR-1 mutant construct H203; test: FACS ratio: 65C12 geomean / this mAb geomean
Description: as §3, §4

[5] = biological target: T2, human ASGR-1 mutant construct H203; test: FACS ratio: H203 normalized value / wt normalized value
Description: as §1, §2

| Binder | FACS Binding Geomean [1] | FACS Binding Geomean [2] | Expression Normalization to mAb 65C12 [3] | Expression Normalization to mAb 65C12 [4] | Normalization to wt ASGR1 Binding [5] |
| --- | --- | --- | --- | --- | --- |
| B1 | 36100 | 13500 | 1.55 | 1.91 | 1.23 |
| B2 | 38700 | 1520 | 1.45 | 17 | 11.7 |
| B3 | 43100 | 18200 | 1.3 | 1.41 | 1.09 |
| B4 | 43500 | 18100 | 1.29 | 1.42 | 1.1 |
| B5 | 47600 | 20500 | 1.18 | 1.26 | 1.07 |
| B6 | 37300 | 1510 | 1.5 | 17.1 | 11.4 |
| B7 | 35600 | 1700 | 1.58 | 15.2 | 9.63 |
| B8 | 29600 | 1370 | 1.89 | 18.8 | 9.95 |
| B9 | 27900 | 1350 | 2.01 | 19.1 | 9.53 |
| B10 | 29600 | 1470 | 1.89 | 17.5 | 9.25 |
| B11 | 25800 | 15100 | 2.18 | 1.71 | 0.786 |
| B12 | 30400 | 14000 | 1.85 | 1.84 | 0.995 |
